# Values of other authors, collected in patent US12653792B2, “Synthetic lipids for mRNA delivery” (Trustees of Tufts College, priority 2019, dated 2026).
# Target: T1, ANGPTL3 (Homo sapiens, UniProt Q9Y5C1)
# T1 sequence (Q9Y5C1 17-460): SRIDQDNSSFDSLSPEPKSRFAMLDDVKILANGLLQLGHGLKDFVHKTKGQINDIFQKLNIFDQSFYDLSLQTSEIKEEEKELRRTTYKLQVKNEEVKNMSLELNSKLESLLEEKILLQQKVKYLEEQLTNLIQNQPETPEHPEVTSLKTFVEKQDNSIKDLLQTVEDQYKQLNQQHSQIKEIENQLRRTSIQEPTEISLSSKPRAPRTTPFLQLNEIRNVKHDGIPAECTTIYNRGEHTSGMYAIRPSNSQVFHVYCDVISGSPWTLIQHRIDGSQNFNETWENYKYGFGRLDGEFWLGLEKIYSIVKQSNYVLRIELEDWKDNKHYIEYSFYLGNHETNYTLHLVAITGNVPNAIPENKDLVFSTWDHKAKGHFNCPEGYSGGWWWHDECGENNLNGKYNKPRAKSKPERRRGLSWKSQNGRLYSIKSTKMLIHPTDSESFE
# Conditions: healthy human volunteers, clinical trial
substance,measurement,value
evinacumab: ANGPTL3 targeting monoclonal antibody,LDL-C and TG levels,effective reduction in LDL-C and TG levels
